To fix the notation:
B1: Lipopolysaccharide export system protein LptC (Escherichia coli (strain K12)), P0ADV9 (parent)
chain: MSKARRWVIIVLSLAVLVMIGINMAEKDDTAQVVVNNNDPTYKSEHTDTLVYNPEGALSYRLIAQHVEYYSDQAVSWFTQPVLTTFDKDKIPTWSVKADKAKLTNDRMLYLYGHVEVNALVPDSQLRRITTDNAQINLVTQDVTSEDLVTLYGTTFNSSGLKMRGNLRSKNAELIEKVRTSYEIQNKQTQP
partner: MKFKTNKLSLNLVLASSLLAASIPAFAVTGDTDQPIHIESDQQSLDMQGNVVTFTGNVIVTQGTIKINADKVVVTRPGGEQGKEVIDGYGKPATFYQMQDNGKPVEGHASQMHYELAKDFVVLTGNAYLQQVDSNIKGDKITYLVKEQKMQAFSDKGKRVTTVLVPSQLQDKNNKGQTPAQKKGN

Variants of B1 are the subject of this assay. As to conditions: with lpta_ecoli lptA.
As for MSKARRWVIIVLSLAVLVMIGINMAEKDDTAQVVVNNNDPTYKSEHTDTLVYNPEGALSYRLIAQHVEYYSDQAVSWFTQPVLTTFDKDKIPTWSVKADKAKLTNDRMLYLYGHVEVNALVPDSQLRRITTDNAQINLVTQDVTSEDLVTLYRTTFNSSGLKMRGNLRSKNAELIEKVRTSYEIQNKQTQP, the “effect of a mutation on the interaction” value is recorded as “disrupting interaction”.
